Test results published in US20060026702A1, “Phosphoinositide 3-kinase mediated inhibition of GPCRs” (DUKE UNIVERSITY, priority 2002, published 2006).

B1: GST-HEAT: GST fusion protein containing 535-732 amino acid residues of PI3Kγ, including the entire HEAT domain (protein)
chain: HPIALPKHQPTPDDRVRAEMPNQLRKQLEAIIATDTAEDKELLWHFRYESLKHPKAYPKLFSSVKWGQQEIVAKTYQLLARREVWDQSALDVGLTMQLLDCNFSDENVRAIAVQKLESLEDDDVLHYLLQLVQAVKFEPYHDSALARFLLKRGLRNKRIGHFLFWFLRSEIAQSRHYQQRFAVILEAYLRGCGTA
modifications: left off: a dimerising Fc or GST
notes: GST fusion protein containing 535-732 amino acid residues of PI3Kγ, including the entire HEAT domain
B2: ΔPI3Kγ: HA tagged PI3 Kp110γ mutant, Δ942-981, deletion in ATP binding site; catalytically inactive (protein)
chain: MELENYKQPVVLREDNCRRRRRMKPRSAASLSSMELIPIEFVLPTSQRKCKSPETALLHVAGHGNVEQMKAQVWLRALETSVAADFYHRLGPHHFLLLYQKKGQWYEIYDKYQVVQTLDCLRYWKATHRSPGQIHLVQRHPPSEESQAFQRQLTALIGYDVTDVSNVHDDELEFTRRGLVTPRMAEVASRDPKLYAMHPWVTSKPLPEYLWKKIANNCIFIVIHRSTTSQTIKVSPDDTPGAILQSFFTKMAKKKSLMDIPESQSEQDFVLRVCGRDEYLVGETPIKNFQWVRHCLKNGEEIHVVLDTPPDPALDEVRKEEWPLVDDCTGVTGYHEQLTIHGKDHESVFTVSLWDCDRKFRVKIRGIDIPVLPRNTDLTVFVEANIQHGQQVLCQRRTSPKPFTEEVLWNVWLEFSIKIKDLPKGALLNLQIYCGKAPALSSKASAESPSSESKGKVRLLYYVNLLLIDHRFLLRRGEYVLHMWQISGKGEDQGSFNADKLTSATNPDKENSMSISILLDNYCHPIALPKHQPTPDPEGDRVRAEMPNQLRKQLEAIIATDPLNPLTAEDKELLWHFRYESLKHPKAYPKLFSSVKWGQQEIVAKTYQLLARREVWDQSALDVGLTMQLLDCNFSDENVRAIAVQKLESLEDDDVLHYLLQLVQAVKFEPYHDSALARFLLKRGLRNKRIGHFLFWFLRSEIAQSRHYQQRFAVILEAYLRGCGTAMLHDFTQQVQVIEMLQKVTLDIKSLSAEKYDVSSQVISQLKQKLENLQNSQLPESFRVPYDPGLKAGALAIEKCKVMASKKKPLWLEFKCADPTALSNETIGIIFKHGDDLRQDMLILQILRIMESIWETESLDLCLLPYGCISTGDKIGMIEIVKDATTIAKIQQSTVGNTGAFKDEVLNHWLKEKSPTEEKFQAAVERFVYSCAGYCVATFVLGIGDRVPFVLTPDFLFVMGTSGKKTSPHFQKFQDICVKAYLALRHHTNLLIIILFSMMLMTGMPQLTSKEDIEYIRDALTVGKNEEDAKKYFLDQIEVCRDKGWTVQFNWFLHLVLGIKQGEKHSAYPYDVPDYA

Tests used:
[1] = biological target: T1, βARK1 (Bos taurus, UniProt P21146); experiment: Co-immunoprecipitation and GST pull-down with purified βARK1; format: binding; settings: sepharose beads, versus GST alone
T1 construct: gift from Dr. Robert Lefkowitz
T1 sequence (P21146 1-689): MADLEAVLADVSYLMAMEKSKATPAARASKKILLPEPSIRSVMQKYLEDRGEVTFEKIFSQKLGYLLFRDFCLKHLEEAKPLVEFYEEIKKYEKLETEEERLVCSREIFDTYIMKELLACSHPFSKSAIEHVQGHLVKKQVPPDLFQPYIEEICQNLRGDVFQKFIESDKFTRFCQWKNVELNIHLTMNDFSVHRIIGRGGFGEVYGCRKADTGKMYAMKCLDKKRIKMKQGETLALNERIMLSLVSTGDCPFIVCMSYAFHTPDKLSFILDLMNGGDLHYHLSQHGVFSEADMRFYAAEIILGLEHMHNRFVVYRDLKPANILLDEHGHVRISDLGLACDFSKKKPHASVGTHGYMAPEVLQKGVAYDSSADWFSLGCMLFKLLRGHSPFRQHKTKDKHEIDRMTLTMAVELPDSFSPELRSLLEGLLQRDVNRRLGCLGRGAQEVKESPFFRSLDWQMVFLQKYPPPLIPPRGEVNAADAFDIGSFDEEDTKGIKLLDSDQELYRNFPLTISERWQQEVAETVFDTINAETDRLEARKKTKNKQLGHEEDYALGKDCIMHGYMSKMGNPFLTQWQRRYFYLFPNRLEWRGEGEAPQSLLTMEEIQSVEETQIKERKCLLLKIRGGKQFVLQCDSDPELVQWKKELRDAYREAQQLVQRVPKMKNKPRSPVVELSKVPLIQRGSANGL
Experimental: GST Fusion Protein Expression and Pull-down Experiments—Plasmid DNAs were transformed in Escherichia coli BL21 cells. Overnight cultures were grown in LB medium supplemented with ampicillin (100 μg/ml), diluted to an A600 of 0.2 in the same medium and grown for another 1 hr at 37° C. Cultured cells were then induced with 0.1 mM isopropyl-1-thio-β-D-galactopyranoside for 2 hr. Cell were then pelleted, washed once with 1× phosphate-buffered saline and resuspended in 1× phosphate-buffered saline containing 1 mM phenylmethylsulfonyl fluoride, 2 mg/ml lysozyme and incubated for 15 min on ice. Cells were lysed by adding Triton X-100 1%. Solublized cells were incubated with DNase (300 units) for 15 min on ice and centrifuged at 13,000 rpm for 10 min.
Glutathione-Sepharose beads were added to the supernatant and gently agitated at 4° C. for 2 hr. Beads were washed three times with ice cold 1×PBS containing 1% Triton X-100 followed by three washes with cold PBS without detergent. Protein concentration was determined using a DC protein assay kit (Bio Rad), and the integrity of the fusion protein was analyzed by SDS-polyacrylamide gel electrophoresis and Coomassie staining.
The beads were spun and washed three times with binding buffer followed by three washes with binding buffer without detergent. The beads were resuspended in SDS gel loading buffer and resolved by gel electrophoresis, immunblotting and detection was carried out described later.
FLAG-HEAT and PI3KΔHEAT proteins were immunoprecipitated from cell extracts using monoclonal FLAG and HA antibodies respectively, fractionated by SDS-PAGE and analyzed by immunoblotting with βARK1 monoclonal antibody. […] Levels of expression of HEAT and PI3KΔHEAT proteins were similar (FIG. 8B, lower panel).
To investigate whether there was a direct physical interaction between the HEAT domain of PI3K and βARK1, GST-HEAT fusion protein containing 535-732 amino acid residues of PI3Kγ was produced, which including the entire HEAT domain and flanking upstream 10 amino acids and downstream 7 amino acids. […]

[2] = tested on: Gβγ subunits of G-protein; experiment: Pull-down with purified Gβγ; format: binding; settings: GST-HEAT beads with purified Gβγ
Experimental: Subsequently, 10 μg of purified Gβγ was added to either βARK1 immobilized beads (5 pg), or the GST-HEAT fusion protein beads (5 μg), and gently rocked for 45 min at room temperature. Beads were spun down, washed in binding buffer X2 and resolved by gel electrophoresis. The presence of Gβγ was detected by immunoblotting with an antibody directed against the Gβ subunit. Purified Gβγ and βARK1 were gifts from Dr. Robert Lefkowitz.
Purified βARK1 and GST-HEAT fusion protein immobilized on sepharose beads were incubated with purified Gβγ. The beads were washed and recovered proteins were analyzed by SDS-PAGE followed by immunoblotting with a Gβ polyclonal antibody. […] Purified Gβγ was loaded as a positive control.

[3] = tested on: β2AR; experiment: β2AR sequestration in HEK-293 cells by 125I-Cyanopindolol binding; format: cell-based; settings: 1 μM isoproterenol, 0-30 min; wortmannin 100 nM 15 min before, or co-transfected ΔPI3Kγ
Experimental: Determination of β2AR Sequestration in HEK-293 Cells by ^125I-Cyanopindolol (CYP) Binding—β2AR sequestration was performed as previously described. Briefly, HEK-293 cells were plated at a density of 2.5×10^6 cells/dish and transfected the following day with plasmids containing either the β2AR (150-250 ng), β2AR (250 ng) and HEAT domain (4 μg), PI3Kγ (4.0 μg) or ΔPI3Kγ (4.0 μg) cDNAs. Twelve hours after transfection cells were split into six well Falcon plates at a density of 750,000 cells/well. […] To determine the amount of internalized receptor, 100 μl aliquots of whole cells were added to 150 μl of binding buffer (75 mM Tris-HCl, 10 mM MgCl2, 5 mM EDTA (pH 7.5)). Total binding was determined in the presence of 175 pM ^125I-CYP alone, the number of internalized receptors were determined by using 175 pM ^125I-CYP plus 100 nM CGP12177, and non-specific binding was determined using 175 pM ^125I-CYP plus 1 μM propranolol. Sequestration was calculated as the ratio of (specific receptor binding of ^125I-CYP in the presence of CGP12177)/(specific receptor binding of ^125I-CYP in the absence of CGP12177).

[4] = tested on: β-arrestin2-GFP; experiment: β-arrestin2-GFP recruitment to the membrane by confocal microscopy; format: cell-based; settings: isoproterenol; co-expressed mutant protein
Experimental: Confocal Microscopy—Confocal microscopy was performed as previously described. […] Cells were split into 35 mm^2 dishes with glass bottoms for observation using a Zeiss LSM-510 confocal microscope. […] For analyses of the HEAT domain, HEK 293 cells were transfected with the plasmids containing cDNAs encoding either the β2AR-YFP (2 μg) or β2AR-YFP (2 μg) and HEAT domain (4 μg). Cells were plated onto glass bottom dishes for observation in the confocal microscope. […] Cells were permeablized with 0.1% Triton X-100 in phosphate-buffered saline for 20 min, incubated in 1% BSA in phosphate-buffered saline for 1 hr. Cells were washed with 1× phosphate-buffered saline and incubated with anti-HA or anti-FLAG monoclonal antibody (1:250) with 1% BSA in 1× phosphate-buffered saline for 1 hr. Cells were washed and incubated with goat anti-mouse IgG conjugated with Texas Red (1:500) (Molecular Probes) for 1 hr. Samples were visualized using single sequential line excitation filters at 488 and 568 nm and emission filter sets at 505-550 nm for GFP detection and 585 for Texas Red detection.
To exclude these possibilities cells were co-transfected with plasmids containing FLAG β2AR, β-arrestin2-GFP and either PI3Kγ or ΔPI3Kγ cDNAs, and were monitored for the recruitment of β-arrestin2-GFP using confocal microscopy. […] Marked redistribution of β-arrestin2-GFP to the membrane occurred within 2.5 minutes. […]

[5] = biological target: T2, β2AR (Homo sapiens, UniProt P07550); experiment: Agonist-induced β2AR phosphorylation, 32P metabolic labeling; format: cell-based; settings: 10 μM isoproterenol 5 min; ΔPI3Kγ co-transfected
T2 construct: expressed in transfected cells; host or cells: HEK-293
Experimental: β2AR Phosphorylation—β2AR phosphorylation was performed in intact cells as previously described. Cells were transfected with plasmids containing the FLAG β2AR (2 μg) and vector DNA (2.5 μg), the FLAG β2AR (2 μg) and PI3Kγ (2.5 μg), or the β2AR (2 μg) and ΔPI3Kγ (2.5 μg). 24 hr after transfection, cells were washed and metabolically labeled for 1 hr with medium containing 100 μCi of ^32P/ml. […] Following centrifugation at 38000×g for 20 min at 4° C., the supernatants were processed for immunoprecipitation of the FLAG-β2AR as described above. Phosphorylated receptors were resolved by 10% SDS-polyacrylamide gel electrophoresis and dried gels subjected to autoradiography.
To directly test the effect of API3Kγ expression on receptor phosphorylation, ^32P; metabolic labeling was performed in HEK-293 cells transfected with plasmids containing FLAG β2AR and either the PI3Kγ or ΔPI3Kγ cDNAs. […] Thus, the effect of overexpression of ΔPI3Kγ on β2AR sequestration is not related to processes that are involved with β2AR phosphorylation or β-arrestin2 recruitment. In FIG. 6D, Agonist (ISO, 5 min) promoted β2AR phosphorylation in transfected cells after ^32Pi metabolic labeling for 1 hour prior to stimulation (upper panel). Lower panel, immunoblot for HA showing equal levels of expression of HA-PI3Kγ and HA-ΔPIβKγ. + represents HA-PI3Kγ control.

| Molecule | binding of purified βARK1 to immobilized fusion protein [1] | association of Gβγ [2] | rate of β2AR sequestration [3] | recruitment of β-arrestin2-GFP to the receptor/membrane after agonist [4] | level of agonist-induced receptor phosphorylation [5] |
| --- | --- | --- | --- | --- | --- |
| B1 | bound specifically | no association | – | – | – |
| B2 | – | – | significant attenuation | prompt recruitment | not affected |
